Key:
Assay in all cases: cryo-EM structure; BS3-crosslinked six-subunit holo-complex, apo / non-liganded; fractions from Superose 6 diluted to 20 mM HEPES.NaOH pH 7.5, 50 mM NaCl, 0.5 mM TCEP, 0.1 mg/ml; maps at 10.8 Å (holo-complex), 8.53 Å (hinge/arm) and 6.5 Å (head-only); pseudo-atomic model built from homology and AlphaFold models
Conditions in all cases: both partners purified
[1] = target: T1, Nse1, subunit of the S. cerevisiae Smc5/6 holo-complex (S. cerevisiae, UniProt Q07913 1-336)
T1 construct: Nse1, Saccharomyces cerevisiae; the model holds amino acids 11-336; also called KITE subunit; source: recombinant, expressed in insect cells, purified as holo-complex (Superose 6 SEC), BS3-crosslinked
T1 sequence: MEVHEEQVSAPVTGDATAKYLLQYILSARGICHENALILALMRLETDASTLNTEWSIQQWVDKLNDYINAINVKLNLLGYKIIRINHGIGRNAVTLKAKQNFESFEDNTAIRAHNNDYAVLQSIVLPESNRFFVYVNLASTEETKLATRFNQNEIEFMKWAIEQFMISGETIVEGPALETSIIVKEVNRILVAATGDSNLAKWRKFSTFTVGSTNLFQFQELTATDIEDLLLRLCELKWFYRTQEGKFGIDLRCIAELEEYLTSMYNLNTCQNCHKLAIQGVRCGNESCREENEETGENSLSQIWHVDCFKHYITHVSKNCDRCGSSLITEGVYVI

[2] = target: T2, Nse4 with HaloTag, kleisin subunit of the S. cerevisiae Smc5/6 holo-complex (S. cerevisiae, UniProt P43124 1-402)
T2 construct: Nse4, Saccharomyces cerevisiae; the model holds amino acids 40-124, 184-202, 213-245, 283-402; Density of the HaloTag attached to Nse4 was removed by particle subtraction, so the tag was on the protein on the grid; its end is told only for the yeast strain (C-terminal), not for the recombinant protein; source: recombinant, expressed in insect cells, purified as holo-complex (Superose 6 SEC), …
T2 sequence: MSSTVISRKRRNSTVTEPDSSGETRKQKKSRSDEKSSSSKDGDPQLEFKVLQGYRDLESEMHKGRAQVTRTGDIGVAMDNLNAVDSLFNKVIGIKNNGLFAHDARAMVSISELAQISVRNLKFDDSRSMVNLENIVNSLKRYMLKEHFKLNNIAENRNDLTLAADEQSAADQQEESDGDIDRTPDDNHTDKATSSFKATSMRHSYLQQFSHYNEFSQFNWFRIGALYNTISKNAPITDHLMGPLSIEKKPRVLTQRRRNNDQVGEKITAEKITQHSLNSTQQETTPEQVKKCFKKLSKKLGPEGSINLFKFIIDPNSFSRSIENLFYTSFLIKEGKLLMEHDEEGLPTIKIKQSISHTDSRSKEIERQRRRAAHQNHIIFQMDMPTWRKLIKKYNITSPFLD

[3] = target: T3, Smc5 (Walker B mutant E1015Q), subunit of the S. cerevisiae Smc5/6 holo-complex (S. cerevisiae, UniProt Q08204 1-1093, E1015Q)
T3 construct: Smc5, Saccharomyces cerevisiae; the model holds amino acids 35-390, 394-882, 884-1068; The complex was crosslinked with BS3; also called κ-SMC; source: recombinant, expressed in insect cells, purified as holo-complex (Superose 6 SEC), BS3-crosslinked
T3 sequence: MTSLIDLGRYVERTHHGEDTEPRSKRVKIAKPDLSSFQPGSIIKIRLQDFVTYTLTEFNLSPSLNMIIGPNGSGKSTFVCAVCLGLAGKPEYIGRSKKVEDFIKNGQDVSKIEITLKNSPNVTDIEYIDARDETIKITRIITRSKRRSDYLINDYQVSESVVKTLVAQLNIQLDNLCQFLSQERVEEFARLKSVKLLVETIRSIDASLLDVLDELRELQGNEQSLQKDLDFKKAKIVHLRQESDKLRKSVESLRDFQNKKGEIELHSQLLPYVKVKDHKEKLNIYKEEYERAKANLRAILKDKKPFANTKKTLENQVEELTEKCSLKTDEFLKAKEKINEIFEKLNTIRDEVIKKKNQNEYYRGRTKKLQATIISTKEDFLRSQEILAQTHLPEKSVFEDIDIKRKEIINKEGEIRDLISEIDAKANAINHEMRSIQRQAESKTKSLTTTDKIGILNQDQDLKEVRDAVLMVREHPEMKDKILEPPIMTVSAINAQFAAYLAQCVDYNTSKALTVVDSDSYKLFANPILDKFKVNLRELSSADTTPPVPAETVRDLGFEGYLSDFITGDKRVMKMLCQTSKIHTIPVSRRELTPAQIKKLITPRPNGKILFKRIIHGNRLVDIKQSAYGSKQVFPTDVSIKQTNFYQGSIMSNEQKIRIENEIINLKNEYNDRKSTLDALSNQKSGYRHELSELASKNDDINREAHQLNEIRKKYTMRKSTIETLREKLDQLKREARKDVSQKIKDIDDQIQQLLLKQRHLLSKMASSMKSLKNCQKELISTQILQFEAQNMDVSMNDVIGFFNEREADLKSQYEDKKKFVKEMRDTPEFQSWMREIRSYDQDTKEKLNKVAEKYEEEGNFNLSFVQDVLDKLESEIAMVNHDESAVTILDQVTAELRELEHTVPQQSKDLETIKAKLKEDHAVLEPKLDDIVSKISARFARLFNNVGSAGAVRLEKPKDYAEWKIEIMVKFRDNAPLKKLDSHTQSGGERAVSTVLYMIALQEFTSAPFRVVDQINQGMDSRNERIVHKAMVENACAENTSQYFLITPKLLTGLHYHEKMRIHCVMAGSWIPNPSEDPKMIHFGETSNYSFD

Measured: binding result

B1: Nse3, subunit of the S. cerevisiae Smc5/6 holo-complex (natural protein)
chain: MSSIDNDSDVDLTEDLAVAKIVKENPVARKMVRYILSRGESQNSIITRNKLQSVIHEAAREENIAKPSFSKMFMDINAILYNVYGFELQGLPSKNNMNAGGNGSNSNTNKSMPEPLGHRAQKFILLNNVPHSKNFDDFKILQSAHTYEELIVTGEYIGDDIASGTSNTLESKLSTDRDLVYKGVLSVILCIVFFSKNNILHQELIKFLETFGIPSDGSKIAILNITIEDLIKSLEKREYIVRLEEKSDTDGEVISYRIGRRTQAELGLESLEKLVQEIMGLEKEQTKSLHDDIIKSIGDSYSI
notes: Nse3, Saccharomyces cerevisiae; the model holds amino acids 9-99, 114-152, 173-303; also called KITE subunit; source: recombinant, expressed in insect cells, purified as holo-complex (Superose 6 SEC), BS3-crosslinked
binds: [1] | [2] | [3]

Source: paper PMC9458440, “Cryo-EM structure of the Smc5/6 holo-complex” (Nucleic Acids Research, 2022)
